Results published in US20250060376A1 (PLASMARKER BIOTECHNOLOGY, published 2025).

Molecular target: T1, GluA1 (mouse (hippocampus of DIR-KI mice), UniProt P23818 19-907, limits assumed)
T1 construct: Endogenous protein in tissue sections (PLA assay)
Assay: PLA assay in hippocampus (FIG. 20E)

T1 sequence (P23818 19-907 limits assumed): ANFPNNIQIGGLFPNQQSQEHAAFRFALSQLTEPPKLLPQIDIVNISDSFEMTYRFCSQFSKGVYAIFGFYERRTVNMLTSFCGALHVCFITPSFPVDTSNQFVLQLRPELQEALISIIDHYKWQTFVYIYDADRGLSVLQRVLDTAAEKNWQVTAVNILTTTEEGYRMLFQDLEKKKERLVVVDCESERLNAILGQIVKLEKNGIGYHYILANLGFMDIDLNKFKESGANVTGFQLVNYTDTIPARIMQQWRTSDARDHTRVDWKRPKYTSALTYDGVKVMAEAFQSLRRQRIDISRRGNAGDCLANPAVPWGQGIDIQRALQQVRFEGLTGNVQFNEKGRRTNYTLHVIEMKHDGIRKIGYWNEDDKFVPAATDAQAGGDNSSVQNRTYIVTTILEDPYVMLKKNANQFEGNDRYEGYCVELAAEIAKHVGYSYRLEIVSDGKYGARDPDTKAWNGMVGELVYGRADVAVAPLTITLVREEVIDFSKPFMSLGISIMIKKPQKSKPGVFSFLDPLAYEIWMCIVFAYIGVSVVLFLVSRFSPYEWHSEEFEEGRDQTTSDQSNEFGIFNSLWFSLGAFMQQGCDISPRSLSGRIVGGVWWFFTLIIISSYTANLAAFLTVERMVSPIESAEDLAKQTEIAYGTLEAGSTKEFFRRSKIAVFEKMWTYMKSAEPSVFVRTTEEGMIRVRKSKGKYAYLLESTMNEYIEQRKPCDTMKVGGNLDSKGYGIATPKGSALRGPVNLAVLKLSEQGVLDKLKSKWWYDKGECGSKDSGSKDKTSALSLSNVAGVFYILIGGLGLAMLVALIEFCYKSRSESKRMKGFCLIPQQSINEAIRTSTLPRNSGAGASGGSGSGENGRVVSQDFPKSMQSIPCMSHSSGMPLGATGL

- binding result: binds
B1: DNA damage-inducible transcript 4-like (DDIT4L) intron retention spliced product (DIR) protein (other)
chain: MVATGSLSSKNPASISELLDCGYHPESLLSGECPRCPPFSPPKVGASGSIGWAGFRLPPLPLCRRCHKIHLRRLLSKFSNIFSP
notes: 84 aa spliced product peptide; also called QDLIR; human DIR
